Measured values as given in patent publication US20220049021A1.
Positions count from the first letter of the chain named. Numbers in names are those of the source. Each block holds one binder with its values, some of them ahead of it.

Experiments:
[1] = target: T1, human FLT3 on AML5 cells (human) (UniProt P36888); assay: cell-based or functional assay
T1 sequence (looked up): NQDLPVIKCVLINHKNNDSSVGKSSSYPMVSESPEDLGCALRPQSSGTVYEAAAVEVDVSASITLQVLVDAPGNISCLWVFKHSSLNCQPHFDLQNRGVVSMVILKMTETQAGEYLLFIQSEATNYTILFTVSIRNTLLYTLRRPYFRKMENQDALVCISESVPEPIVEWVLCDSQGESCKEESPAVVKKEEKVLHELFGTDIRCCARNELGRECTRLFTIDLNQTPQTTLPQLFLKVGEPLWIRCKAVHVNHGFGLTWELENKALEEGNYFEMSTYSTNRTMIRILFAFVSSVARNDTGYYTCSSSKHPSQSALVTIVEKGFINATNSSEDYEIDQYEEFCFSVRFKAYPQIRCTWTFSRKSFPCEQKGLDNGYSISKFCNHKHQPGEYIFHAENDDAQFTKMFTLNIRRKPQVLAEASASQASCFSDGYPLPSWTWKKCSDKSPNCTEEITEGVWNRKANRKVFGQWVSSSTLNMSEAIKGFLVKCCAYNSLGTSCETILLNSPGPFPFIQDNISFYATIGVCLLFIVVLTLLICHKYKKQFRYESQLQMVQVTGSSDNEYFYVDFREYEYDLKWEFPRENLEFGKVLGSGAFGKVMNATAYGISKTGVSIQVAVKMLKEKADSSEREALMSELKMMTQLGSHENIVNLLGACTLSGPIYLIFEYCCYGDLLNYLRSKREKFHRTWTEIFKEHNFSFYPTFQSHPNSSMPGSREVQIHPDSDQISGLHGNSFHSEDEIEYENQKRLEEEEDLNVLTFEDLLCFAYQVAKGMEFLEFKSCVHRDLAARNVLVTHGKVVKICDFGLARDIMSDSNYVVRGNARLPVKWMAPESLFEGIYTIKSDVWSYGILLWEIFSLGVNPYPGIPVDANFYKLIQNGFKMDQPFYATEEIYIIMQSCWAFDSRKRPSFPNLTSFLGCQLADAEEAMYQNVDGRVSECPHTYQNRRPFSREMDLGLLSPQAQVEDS

[2] = target: T2, mouse FLT3 on M1 cells (mouse) (UniProt Q00342); assay: cell-based or functional assay
T2 sequence (looked up): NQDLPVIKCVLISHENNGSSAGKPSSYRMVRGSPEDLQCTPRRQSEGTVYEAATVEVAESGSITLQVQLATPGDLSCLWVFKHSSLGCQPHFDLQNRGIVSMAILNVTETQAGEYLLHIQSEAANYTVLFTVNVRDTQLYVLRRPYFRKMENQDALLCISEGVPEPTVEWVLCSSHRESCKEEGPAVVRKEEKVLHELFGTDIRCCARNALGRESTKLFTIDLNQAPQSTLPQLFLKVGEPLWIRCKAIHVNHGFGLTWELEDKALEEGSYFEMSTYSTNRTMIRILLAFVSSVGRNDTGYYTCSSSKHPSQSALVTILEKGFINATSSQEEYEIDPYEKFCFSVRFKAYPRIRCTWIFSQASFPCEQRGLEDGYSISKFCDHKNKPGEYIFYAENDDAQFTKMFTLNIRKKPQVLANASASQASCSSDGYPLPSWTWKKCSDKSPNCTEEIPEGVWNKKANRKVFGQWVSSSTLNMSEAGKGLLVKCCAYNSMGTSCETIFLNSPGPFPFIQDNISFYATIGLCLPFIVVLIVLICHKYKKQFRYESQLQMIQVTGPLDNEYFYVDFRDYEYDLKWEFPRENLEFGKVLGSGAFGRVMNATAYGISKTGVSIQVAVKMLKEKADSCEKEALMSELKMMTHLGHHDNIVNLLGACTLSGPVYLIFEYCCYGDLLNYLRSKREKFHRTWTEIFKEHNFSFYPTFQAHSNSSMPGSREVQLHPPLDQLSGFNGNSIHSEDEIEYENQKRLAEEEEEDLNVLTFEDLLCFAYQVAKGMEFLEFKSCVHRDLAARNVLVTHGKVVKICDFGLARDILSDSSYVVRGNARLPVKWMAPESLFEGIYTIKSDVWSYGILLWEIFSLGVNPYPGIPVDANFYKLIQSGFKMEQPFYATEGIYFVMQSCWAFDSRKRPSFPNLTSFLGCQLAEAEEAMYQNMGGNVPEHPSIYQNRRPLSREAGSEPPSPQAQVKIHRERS

EC50(nM), M1 IL-6 release assay [2]: 0.117 nM
Emax(pg/ml), M1 IL-6 release assay [2]: 517 pg/mL
B3: recombinant human FLT3-ligand human IgG1 fusion protein (Fc fusion, UniProt P49771 27-185, looked up, not shown: a dimerising Fc or GST)
chain: TQDCSFQHSPISSDFAVKIRELSDYLLQDYPVTVASNLQDEELCGGLWRLVLAQRWMERLKTVAGSKMQGLLERVNTEIHFVTKCAFQPPPSCLRFVQTNISRLLQETSEQLVALKPWITRQNFSRCLELQCQPDSSTLPPPWSPRPLEATAPTAPQPP

EC50(nM), M1 IL-6 release assay [2]: 0.024 nM
Emax(pg/ml), M1 IL-6 release assay [2]: 392 pg/mL
EC50 (nM), Inducing Proliferation of AML5 Cells [1]: 0.039 nM
B4: recombinant human FLT3-ligand (ligand, UniProt P49771 27-185, looked up)
chain: B3 chain

The next lines start with the binder.

B1: mouse FLT3-ligand mouse IgG2a (LALA-PG) fusion protein (SEQ ID NO:19) (Fc fusion)
chain: TPDCYFSHSPISSNFKVKFRELTDHLLKDYPVTVAVNLQDEKHCKALWSLFLAQRWIEQLKTVAGSKMQTLLEDVNTEIHFVTSCTFQPLPECLRFVQTNISHLLKDTCTQLLALKPCIGKACQNFSRCLEVQCQPDSSTLLPPRSPIALEATELPEPRGPTIKPCPPCKCPAPNAAGGPSVFIFPPKIKDVLMISLSPIVTCVVVDVSEDDPDVQISWFVNNVEVHTAQTQTHREDYNSTLRVVSALPIQHQDWMSGKEFKCKVNNKDLGAPIERTISKPKGSVRAPQVYVLPPPEEEMTKKQVTLTCMVTDFMPEDIYVEWTNNGKTELNYKNTEPVLDSDGSYFMYSKLRVEKKNWVERNSYSCSVVHEGLHNHHTTKSFSRTPGK
EC50 (nM), Inducing Proliferation of AML5 Cells [1]: 0.171 nM

B2: mouse FLT3-ligand mouse IgG2a (C136S LALA-PG) fusion protein (SEQ ID NO:20) (Fc fusion)
chain: B1 chain with C109S
EC50 (nM), Inducing Proliferation of AML5 Cells [1]: 0.115 nM
